How the values were obtained:
[1] = tested on: mouse primary hindbrain neurons (MPHN); experiment: Calcium flux in primary hindbrain neurons; assay type: cell-based; settings: MPHN treated with undercarboxylated or carboxylated osteocalcin
Procedure: For calcium imaging, primary hindbrain neurons seeded on 12 mm coverslips were allowed the appropriate time to form structural networks. These cultures were washed with HBSS and loaded with 2.5 μM FURA-2, AM calcium indicator for 45 minutes at room temperature, according to the manufacturer's protocol. Cells were then washed to remove excess indicator and incubated for 30 minutes to allow internalized esters to become de-esterified. 30 ng/ml of osteocalcin was prepared with the control buffer of 1×HBBS supplemented with 10 mM HEPES buffer and 2 mM CaCl2. Using a Zeiss microscope with a perfusion system, coverslips were first perfused with control and osteocalcin. After each stimulation, cells were depolarized with 50 mM KCl to determine the percentage of live cells being imaged. All treatments were recorded using two-photon laser scanning microscopy by Prairie Technologies and analyzed by Z axis profile plotting using ImageJ.
To determine if osteocalcin acts directly on neurons to modulate neurotransmitter synthesis, several types of assays were performed. First, brainstem and midbrain explants from WT and Gprc6a^−/− mice were generated. […] Third, to further confirm that osteocalcin signals in neurons of the hindbrain, calcium flux in MPHN treated with undercarboxylated or carboxylated osteocalcin (FIG. 3F) was measured. […]

[2] = Ex vivo dual perfusion of the mouse placenta (maternal-fetal transport); assay type: in vitro ADME; settings: 300 ng/ml through the uterine artery
Procedure: FIG. 6. Maternal osteocalcin favors fetal neurogenesis. (A) Expression of osteocalcin (qPCR) in bone, brain, and placenta of WT and Ocn^−/− newborns (postnatal day [P] 0) and embryos (E13.5-E18.5). (B) Osteocalcin circulating levels in WT or Ocn^−/− newborns (P0) and embryos (E13.5-E18.5). (C) Ex vivo dual-perfusion system that monitors the transport of osteocalcin across the placenta. Uncarboxylated mouse osteocalcin (300 ng/ml) was injected through the uterine artery in placentas obtained from WT mice at E14.5, E15.5, and E18.5 of pregnancy. Osteocalcin in fetal eluates is represented as % of maternal input. (D) Circulating levels of osteocalcin in WT embryos originating from WT or Ocn^+/− mothers, of Ocn^+/− embryos originating from Ocn^+/− Ocn^−/− mothers, and of Ocn^−/− embryos originating from Ocn^+/− or Ocn^−/− mothers. Measurements were performed at E16.5 and E18.5. […]
Maternal-fetal transport of osteocalcin was monitored using ex vivo dual perfusion of the mouse placenta (Goeden & Bonnin, 2013, Nature Protocols 8:66-74). […] Osteocalcin transport through the placenta was analyzed by measuring the concentration of osteocalcin present in fetal eluates obtained through the umbilical vein, each time point (1-9) corresponding to a 10 minute collection period (at 5 μl/min). […]

B1: uncarboxylated osteocalcin: Recombinant osteocalcin bacterially produced, cleaved from the GST subunit; completely undercarboxylated at all three sites (protein, listed as Homo sapiens)
chain: MRALTLLALLALAALCIAGQAGAKPSGAESSKGAAFVSKQEGSEVVKRPRRYLYQWLGAPVPYPDPLEPRREVCELNPDCDELADHIGFQEAYRRFYGPV
modifications: uncarboxylated
notes: Recombinant osteocalcin bacterially produced, cleaved from the GST subunit; completely undercarboxylated at all three sites
calcium fluxes in primary hindbrain neurons [1]: induced changes in calcium fluxes | transport across the placenta, onset ([2]; WT placentas): begins to cross the placenta at day 14.5 of gestation | transplacental transfer to the fetal circulation at day 15.5 or 18.5 of gestation ([2]; compared with day 14.5): larger transplacental transfer
